{"source": "patent US20220204592A1", "about": "(VISTERRA, published 2022)", "key": {"[1]": {"biological_target": "T1, H1 hemagglutinin (A/Solomon Islands/3/2006) (influenza A virus A/Solomon …)", "assay": "ELISA on coated HA, relative Kd (4-parameter fit)"}, "[2]": {"biological_target": "H3 hemagglutinin of H3N2 strain X-31 (influenza A virus X-31 (H3N2), UniProt P03437 17-566)", "assay": "cell-based or functional assay"}, "[3]": {"biological_target": "H1 hemagglutinin of H1N1 Solomon Islands (isolate not specified)", "assay": "cell-based or functional assay"}, "[4]": {"biological_target": "H5 hemagglutinin (A/Duck/MN/1525/81) (influenza A virus A/Duck/MN/1525/81 …)", "assay": "cell-based or functional assay"}, "[5]": {"biological_target": "H1 hemagglutinin (A/California/04/2009) (influenza A virus A/California/04/2009 …)", "assay": "cell-based or functional assay"}, "[6]": {"biological_target": "H3 hemagglutinin (A/Shangdong/09/93) (influenza A virus A/Shangdong/09/93 …)", "assay": "cell-based or functional assay"}, "[7]": {"biological_target": "H3 hemagglutinin (A/Fujian/411/2003) (influenza A virus A/Fujian/411/2003 …)", "assay": "cell-based or functional assay"}, "[8]": {"biological_target": "T2, H1 hemagglutinin (A/Solomon Islands/20/1999) (influenza A virus A/Solomon …)", "T2 construct": "ELISA antigen", "assay": "ELISA on coated HA"}, "[9]": {"biological_target": "T1, H1 hemagglutinin (A/Solomon …)", "assay": "ELISA on coated HA, relative Kd (4-parameter fit)", "remark": "listed apart in the source"}}, "note": "Like-named read-outs stand apart in the source and are kept apart here.", "data": [{"binder": "Ab A18 (antibody, V domains shown) VH: EVQLLESGGGLVKPGQSLKLSCAASGFTFTSYGMHWVRQPPGKGLEWVAVISYDGSYKYYADSVQGRFTISRDNSKNTLYLQMNSLRAEDTAVYYCAKDSRLRSLLYFEWLSQGYFNPWGAGTTLTVSS VL: not shown", "values": [{"measurement": "Kd", "setting": "[1]", "result": 0.144, "unit": "nM"}, {"measurement": "IC50 (RT-PCR, neutralisation)", "setting": "[2]", "result": 0.4, "unit": "mg/L"}]}, {"binder": "Ab 044 (antibody, V domains shown) VH: QVQLLETGGGLVKPGQSLKLSCAASGFTFTSYAMHWVRQPPGKGLEWVAVVSYDGNYKYYADSVQGRFTISRDNSKNTLYLQMNSLRAEDTAVYYCAKDSRLRSLLYFEWLSQGYFNPWGQGTTLTVSS VL: DIQMTQSPSSLSASVGDRVTITCRSSQSITFDYKNYLAWYQQKPGKAPKLLIYWGSYLESGVPSRFSGSGSGTDFTLTISSLQPEDFATYYCQQHYRTPPSFGQGTKVEIK", "values": [{"measurement": "EC50, Neutral Red (CPE inhibition)", "setting": "[3]", "result": 1.2, "unit": "mg/L"}, {"measurement": "EC50, Neutral Red (CPE inhibition)", "setting": "[4]", "result": 1.5, "unit": "mg/L"}, {"measurement": "EC50, Neutral Red (CPE inhibition)", "setting": "[5]", "result": 5.1, "unit": "mg/L"}, {"measurement": "EC50, Neutral Red (CPE inhibition)", "setting": "[6]", "result": 0.6, "unit": "mg/L"}, {"measurement": "EC50, Neutral Red (CPE inhibition)", "setting": "[7]", "result": 0.3, "unit": "mg/L"}, {"measurement": "Kd", "setting": "[8]", "result": "< 0.5", "unit": "nM"}]}, {"binder": "Ab 032 (antibody, V domains shown) VH: QVQLLETGGGLVKPGQSLKLSCAASGFTFTSYAMHWVRQPPGKGLEWVAVVSYDGNYKYYADSVQGRFTISRDNSKNTLYLQMNSLRAEDTAVYYCAKDSRLRSLLYFEWLSQGYFNPWGQGTTLTVSS VL: DIQMTQSPSSLSASVGDRVTITCRSSQSITFNYKNYLAWYQQKPGKAPKLLIYWGSYLESGVPSRFSGSGSGTDFTLTISSLQPEDFATYYCQQHYRTPPSFGQGTKVEIK", "values": [{"measurement": "Kd", "setting": "[9]", "result": "< 0.025", "unit": "nM"}]}]}
